Assay results from publication doi:10.1101/366336.

The binders below were run against hPcf11 (in CF II);hClp1 (human;human, UniProt O94913;Q92989 1-1555;1-425, |) (assay: EMSA).
Chain of hPcf11 (in CF II);hClp1 (O94913 whole entry, chain 1 of 2): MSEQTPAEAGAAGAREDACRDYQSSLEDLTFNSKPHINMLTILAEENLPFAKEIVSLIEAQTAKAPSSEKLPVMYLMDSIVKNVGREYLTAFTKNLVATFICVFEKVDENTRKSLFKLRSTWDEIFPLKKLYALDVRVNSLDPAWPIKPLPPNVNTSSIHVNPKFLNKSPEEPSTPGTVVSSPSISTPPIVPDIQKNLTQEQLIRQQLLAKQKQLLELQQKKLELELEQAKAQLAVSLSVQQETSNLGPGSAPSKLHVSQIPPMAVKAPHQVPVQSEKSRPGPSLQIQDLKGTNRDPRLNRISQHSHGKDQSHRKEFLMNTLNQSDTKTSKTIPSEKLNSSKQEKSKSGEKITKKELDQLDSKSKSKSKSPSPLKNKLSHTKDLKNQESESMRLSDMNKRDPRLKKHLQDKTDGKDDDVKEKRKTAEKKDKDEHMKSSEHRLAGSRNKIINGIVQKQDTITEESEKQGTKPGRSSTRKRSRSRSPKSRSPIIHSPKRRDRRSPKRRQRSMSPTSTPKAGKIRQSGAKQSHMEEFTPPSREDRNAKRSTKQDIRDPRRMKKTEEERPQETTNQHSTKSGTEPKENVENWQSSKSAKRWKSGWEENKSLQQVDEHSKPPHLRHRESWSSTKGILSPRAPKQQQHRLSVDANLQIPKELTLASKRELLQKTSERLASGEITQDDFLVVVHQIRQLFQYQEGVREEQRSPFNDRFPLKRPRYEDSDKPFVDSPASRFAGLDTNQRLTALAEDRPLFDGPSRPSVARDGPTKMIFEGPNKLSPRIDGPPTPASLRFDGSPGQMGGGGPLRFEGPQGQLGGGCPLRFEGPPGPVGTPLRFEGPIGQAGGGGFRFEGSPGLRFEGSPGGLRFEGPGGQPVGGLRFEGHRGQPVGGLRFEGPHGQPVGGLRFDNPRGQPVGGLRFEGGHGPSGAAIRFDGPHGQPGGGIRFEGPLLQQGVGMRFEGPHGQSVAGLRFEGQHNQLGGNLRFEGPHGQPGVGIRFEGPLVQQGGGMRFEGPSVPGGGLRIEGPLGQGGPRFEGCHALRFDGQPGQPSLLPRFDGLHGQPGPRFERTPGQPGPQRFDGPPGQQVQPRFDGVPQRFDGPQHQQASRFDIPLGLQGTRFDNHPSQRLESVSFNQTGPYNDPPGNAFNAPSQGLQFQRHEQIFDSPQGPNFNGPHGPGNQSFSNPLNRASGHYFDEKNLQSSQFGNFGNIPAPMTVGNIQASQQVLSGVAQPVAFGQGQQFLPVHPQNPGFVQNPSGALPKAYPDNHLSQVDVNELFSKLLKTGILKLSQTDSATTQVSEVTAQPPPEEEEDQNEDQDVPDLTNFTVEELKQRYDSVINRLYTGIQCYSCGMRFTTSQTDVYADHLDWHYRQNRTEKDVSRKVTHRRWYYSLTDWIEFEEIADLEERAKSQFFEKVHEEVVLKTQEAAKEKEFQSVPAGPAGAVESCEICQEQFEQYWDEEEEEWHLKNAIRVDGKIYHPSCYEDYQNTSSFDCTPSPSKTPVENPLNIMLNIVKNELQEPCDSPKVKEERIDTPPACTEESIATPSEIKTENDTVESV
Chain of hPcf11 (in CF II);hClp1 (Q92989 whole entry, chain 2 of 2): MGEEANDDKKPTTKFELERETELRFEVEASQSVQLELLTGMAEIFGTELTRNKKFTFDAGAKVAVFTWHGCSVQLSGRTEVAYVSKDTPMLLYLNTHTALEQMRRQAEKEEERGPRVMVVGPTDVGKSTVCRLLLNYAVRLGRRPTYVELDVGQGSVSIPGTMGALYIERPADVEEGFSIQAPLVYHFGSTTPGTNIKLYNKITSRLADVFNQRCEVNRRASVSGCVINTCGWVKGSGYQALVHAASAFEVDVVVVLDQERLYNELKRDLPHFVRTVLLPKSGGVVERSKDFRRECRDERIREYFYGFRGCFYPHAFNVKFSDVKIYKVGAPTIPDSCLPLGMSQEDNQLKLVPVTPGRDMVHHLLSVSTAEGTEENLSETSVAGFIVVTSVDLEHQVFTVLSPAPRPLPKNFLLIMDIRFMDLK
GGGUUUAAGUGGGUCACGUUUAAAC (ssRNA) [BS2] gave a Kd of 11 nM.
GGGGGGGGGGG (ssRNA) [G11] showed a Kd of 41 nM.
With GGGGGAGGUGUGGGAGG (ssRNA) [208-224] the Kd was 5.2 nM.
Work on GGGGGGGGGGGG (ssRNA) [G12] yielded a Kd of 21 ± 9 nM.
GGGUUUAAGUGGGUCACG (ssRNA) [BS2-d1] gave a Kd of 13 nM.
For GGUUCAGGGGGAGGUGUGGGAGG (ssRNA) [202-224], the Kd was 0.8 nM.
In the case of UUUAAGUGGGUCACG (ssRNA) [BS2-d3], the Kd is reported as 105 nM.
GGGGGAGGUGUGGGAGGU (ssRNA) [208-225] gave a Kd of 2.6 nM.
With GGGGGGGGGGGGG (ssRNA) [G13] the Kd was 21 ± 12 nM.
CCCUUUAAGUGGGUCACG (ssRNA) [BS2-d2] was tested, and the Kd was 54 nM.
